Values of other authors, collected in publication PMC4153603.
pKd: −log10 of the molar value.

Assays:
[1] = biological target: Kv1.1 (Homo sapiens) (UniProt Q09470)
[2] = biological target: Kv1.3 (Homo sapiens) (UniProt P22001)
Chain of UniProt P22001 (P22001 whole entry): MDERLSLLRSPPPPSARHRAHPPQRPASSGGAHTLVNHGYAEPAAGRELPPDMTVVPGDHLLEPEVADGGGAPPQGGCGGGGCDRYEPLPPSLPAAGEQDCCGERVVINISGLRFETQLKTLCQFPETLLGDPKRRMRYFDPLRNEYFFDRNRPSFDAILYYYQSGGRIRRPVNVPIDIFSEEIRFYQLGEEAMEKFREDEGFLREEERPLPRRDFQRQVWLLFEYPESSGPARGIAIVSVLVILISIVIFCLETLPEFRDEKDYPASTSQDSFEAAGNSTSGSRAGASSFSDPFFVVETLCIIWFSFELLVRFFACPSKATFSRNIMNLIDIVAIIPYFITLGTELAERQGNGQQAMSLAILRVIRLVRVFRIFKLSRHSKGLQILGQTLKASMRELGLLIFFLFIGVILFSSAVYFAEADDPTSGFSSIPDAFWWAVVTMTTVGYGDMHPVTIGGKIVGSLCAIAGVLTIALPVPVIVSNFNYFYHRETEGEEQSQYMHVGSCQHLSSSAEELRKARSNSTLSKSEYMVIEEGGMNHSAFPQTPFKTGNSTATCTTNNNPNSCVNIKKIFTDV

Chain of UniProt Q09470 (Q09470 whole entry): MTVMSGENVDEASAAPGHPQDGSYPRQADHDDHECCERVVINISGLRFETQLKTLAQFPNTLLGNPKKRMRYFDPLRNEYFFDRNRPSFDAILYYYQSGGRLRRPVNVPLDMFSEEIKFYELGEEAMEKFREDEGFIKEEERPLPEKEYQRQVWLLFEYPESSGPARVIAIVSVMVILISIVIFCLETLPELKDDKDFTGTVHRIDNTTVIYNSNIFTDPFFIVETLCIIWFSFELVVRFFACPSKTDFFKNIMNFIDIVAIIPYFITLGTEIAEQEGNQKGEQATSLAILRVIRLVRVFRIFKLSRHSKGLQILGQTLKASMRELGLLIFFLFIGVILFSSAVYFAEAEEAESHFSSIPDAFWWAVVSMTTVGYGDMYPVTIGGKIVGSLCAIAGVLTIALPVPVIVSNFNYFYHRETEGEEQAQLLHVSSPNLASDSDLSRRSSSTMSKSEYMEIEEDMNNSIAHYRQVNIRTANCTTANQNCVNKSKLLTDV

**Q.** With ShK (from UniProt P29187) as the substance, how does the pKd [1] read?
**A.** The pKd was 10.55.

**Q.** And the pKd [2]?
**A.** The pKd was 11.00.
